According to the RNAGym collection of RNA variant scans (doi:10.1021/acssynbio.7b00057):

B1: Pistol ribozyme (parent)
chain: GGGUCGUUGUUCCAUAAUCGCGUGGAUAUGGCACGCAAGUUUCUACCGGGCACCGUAAAUGUCCGACUGGAGCCGUUCGGGCGGCUAUAAACAGACCUCAGGCCCGAAGCGUGGCGGCACCUGCCGCCGGUGGUAAAAAAGAUCGGAAGAGCACACGUCU

Variants of: B1
Test: aptazyme ON/OFF ratio, guanine; higher = stronger switching; co-transcriptional cleavage with and without guanine

Variant | aptazyme ON/OFF ratio
U8C G9A U10C U11C C12U | 1.08
U7C U8C G9U U11G C12U C13G | 1.07
U7A U8G U10C U11C | 2.69
U7G U8C G9C U11A | 2.39
U7G U8C G9A U10G U11G | 1.77
U7G U8A G9U U10A U11A C12U C13G | 1.07
U7G U8A U11C C12U | 1.41
U7G U8G G9U C12U | 1.66
U7A U8C G9C U10A U11G C12G C13G | 1.13
U7G U8G G9A U10G U11C C12U C13A | 1.07
U7G U8C G9C U10G C12U C13A | 1.11
U7G U8A G9A C12G C13G | 1.04
U7C U8C U10A C12G C13A | 1.12
U8C C13U | 1.55
U7G U8A G9A C12A C13A | 1.25
U7C U8G G9C U10A U11G C12G C13A | 1.31
U7A U8C G9A U10C U11A C13G | 1.17
U7A G9C U10A C12U C13G | 1.11
U7C U8C G9C U10C U11C C12A C13A | 0.986
U7A U8G G9U U10C U11C C12A C13G | 1.32
U7C G9U U10C C12U | 1.09

Variant | aptazyme ON/OFF ratio
U7G G9C C12U C13A | 1.3
U7A U8G G9A U10A U11A C13A | 1.19
U8A G9U U10A U11C | 1.03
U7A U8A G9U U10A U11A C12A | 1.22
U7C U8A G9A U10G U11A C12U C13U | 1.06
U7A U8C C12A C13U | 1.24
U7A U8G G9A U10A C12G C13A | 1.52
U7G U8C G9A U10A U11A C12U C13A | 1.13
U7A G9U U10A U11C C12U C13G | 1.12
U7G U8A G9C U10C U11C C12A | 1.04
U7C G9A U10C U11G C12U C13A | 1.31
U7A U8A G9C U10G U11C C12G | 1.27
U7G U8A G9A U10A | 1.77
U11A C12G C13U | 1.42
U7G U8A U10A C12G | 1.3
U8G G9U U10A U11C C12A C13G | 1.1
U8A G9A U10G U11G C12A C13A | 1.12
U7A U10A U11C C12A C13G | 1.03
U7G G9U U10C | 3.94
U7A U8A G9A U11G | 1.29
U7A G9A U11C C12A C13U | 1.16

Variant | aptazyme ON/OFF ratio
U7A U10A C13G | 1.05
U7A U8A G9U U10G U11A C12U C13A | 1.14
G9A U10A U11C C12G C13A | 1.31
U7A U8A G9A U11A C12A | 1.26
U7G U8G G9C U10G U11C C12A C13G | 1.05
U7C U8A G9A U10G C12U | 1.29
U7A G9C U10A C12U | 1.14
U8A U10C U11C C12A C13A | 1.18
U7G U8C G9U U11G C12U C13A | 1.26
U8C G9C U10G U11C C12G | 1.21
U8A G9U U10A U11A C12U C13G | 1.36
G9A U10A U11C C12U | 1.13
U7A U8C G9C U11A C12U | 1.05
U7G U8A G9A U11C C13U | 1.06
U10C C12G C13A | 1.24
U7G U8G G9C U11G C13U | 1.49
U8C G9C U11G C12U C13U | 1.1
U8C G9U U10G U11G C12A C13A | 1.14
U7C G9C U10C U11G C12U C13G | 1.1
U8C G9U U10C U11G C12U C13A | 1.13
U7C U8C G9U U10G U11A C12U | 1.17

Variant | aptazyme ON/OFF ratio
U7C G9U U10C U11C C12U | 1.02
U7A U11G C13A | 1.03
U8C U10A U11G | 1.29
U8C U10A U11A | 1.18
U8C G9U U10G U11G | 2.19
U7A U8C G9A U10C U11A C12A C13G | 1.1
U7G U8A G9C U10C U11G C12U C13U | 1.04
U7A U8C G9C U10C C13U | 1.06
U7A U8G G9C U11A C12G C13U | 1.28
U7G U8G G9A U10C C13G | 1.12
U7C U8G G9A U10A U11A C12A C13U | 1.21
U7A U8G G9A U10C U11C C13A | 1.07
U7G U8G G9C U10A U11C C12U C13U | 1.04
U7G G9A C13A | 1.24
U7C U8C G9A U10C U11A C12G C13G | 1.19
U8C G9A U10G U11C C12G C13U | 1.2
U8G G9A C12A C13U | 1.39
U7G U8C G9C U10C U11C C12U C13A | 1.05
U7G U11A C12A C13U | 1.22
U7A U10A U11G C12U C13A | 1.11
U8G G9A U10G U11C C12A C13U | 1.18
